Molecular target: T1, AβpE3-38 (human, UniProt P05067 674-709, pyroglutamate at position 3 (N-terminal residue))
T1 construct: range 3-38; The range counts on Aβ numbering, not on the APP precursor; also called human AβpE3-38
Experiment: ELISA screening of hybridoma clones
Excerpt: The AβpE3 oligomere specific antibodies 9D5H6 (IgG2b) and 8C4D2 (IgG1) were generated by immunizing three Balb/c mice with AβpE3-38. After preparation of the lymph nodes cells were fused with the myeloma cell line P3-X63-Ag8. The hybridoma supernatants of mixed clones were screened by ELISA and subcloned. The monoclonal antibodies 9D5 and 8C4 were selected by ELISA against different N-terminal Aβ epitopes. Clones producing signals with AβpE3-38 and AβpE3-42, but no signal with […] were isolated and further characterized. For comparison, Aβ antibodies 4G8 (Aβ epitope 17-24; Covance), W0-2 (Aβ epitope 4-8; The Genetics Company), NT78 (against generic Aβ1-16, Synaptic Systems) and 2-48 (against N-terminal AβpE3, Synaptic Systems; Wirths, O., et al. J Neural Transm 117, 85-96 (2010)) were used. GFAP (rabbit) and IBA1 (rabbit) antisera were from Synaptic Systems and Wako Pure Chemicals respectively. Peptides were purchased from PSL (Heidelberg, Germany), reconstituted as indicated below and immediately frozen until further use.

T1 sequence (P05067 674-709): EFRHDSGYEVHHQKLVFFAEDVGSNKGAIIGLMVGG

binding result: binds
B1: PG3-38 9D5H6 (antibody, V domains shown)
VH: QLQQSGAELMKPGASVKISCKATGYTFSSYWIEWVKQRPGHGLEWIGEILPGRGSTHYNEKFKGKATFTADTSSNTAYMQLSSLTSEDSAVYYCARSPITTSDYWGQGTTLTVSS
VL: DVVMTQTPLSLPVSLGDQASISCRSSQSLLHSNGNTYLHWYLQKPGQSPKLLIYKVSNRFSGVPDRFSGSGSGTDFTLKISRVEAEDLGVYFCSQSTHVPLTFGAGT
notes: The printed VH starts at QLQQ and the printed VL ends at FGAGT, so both may be slightly truncated; also called antibody obtainable from hybridoma DSM ACC3056

— US20130295095A1 (GEORG AUGUST UNIVERSIT T G TTINGEN STIFTUNG FFENTLICHEN …, published 2013)
